pKd: −log10 of the molar value.
Tests used:
K-RasB-K175A = K-RasB-K175A (UniProt P01116); assay: ITC; 0.3–0.8 mM CaM in the syringe injected into 20–40 µM Ras protein (GppNHp form) in the cell; […]; 20 mM HEPES pH 7.4, 150 mM NaCl, 1 mM CaCl2, 1 mM MgCl2; single set of identical sites model
[1] = molecular target: H-Ras-(KKKKKK), chimeric H-Ras with the polylysine region of K-RasB at 175-180 (UniProt P01112); assay: as above
[2] = molecular target: farnesylated K-RasB-K175A (UniProt P01116); assay: as above
[3] = molecular target: full-length K-RasB (unprocessed) (UniProt P01116); assay: as above
farnesylated K-RasB = farnesylated K-RasB (UniProt P01116); assay: as above
[4] = molecular target: dansyl-calmodulin (dansyl-CaM) (bovine) (UniProt P62157); assay: other fluorescence titration; 1 µM dansyl-CaM titrated with Ras protein (GppNHp form); […]; 20 mM HEPES pH 7.4, 150 mM NaCl, 1 mM CaCl2, 1 mM MgCl2; excitation 335 nm, emission at 480 nm

Substance | dH (K-RasB-K175A) | stoichiometry N (K-RasB-K175A) | pKd [1] | dH [1] | stoichiometry N [1] | dH [2] | stoichiometry N [2] | dH [3] | stoichiometry N [3] | dH (farnesylated K-RasB) | stoichiometry N (farnesylated K-RasB) | pKd [4]
calmodulin (CaM), Ca^2+-saturated, from bovine brain (from UniProt P62157 1-149) (natural protein) | 2.48 kcal/mol | 0.995 | 5.41 | 6.16 kcal/mol | 0.903 | 1.01 kcal/mol | 0.972 | 3.63 kcal/mol | 0.924 | 3.33 kcal/mol | 1.13 | 
H-Ras-(KKKKKK), chimeric H-Ras with the polylysine region of K-RasB at 175-180 (from UniProt P01112 1-189) (natural protein) |  |  |  |  |  |  |  |  |  |  |  | 5.60
